Numbered stars: 1 amine (or outer) side, 2 acyl side, 3 side chain; on linkers, the order of the positions; unused ones are H or OH. Bridge positions count the residues as written; N and C are the ends. * marks the point of attachment. C20 diacid = O=C(O)CCCCCCCCCCCCCCCCCCC(=O)*; γGlu = O=C(O)[C@H](CCC(=O)[*:2])N[*:1]
T1: human amylin receptor (amylin 3(a) receptor: human calcitonin receptor with RAMP-3) (human, UniProt P30988 25-474; O60896 24-148)
T1 construct: whole, on cells; also called hAmylin-R; hAmylinR
T1 sequence (looked up) 1: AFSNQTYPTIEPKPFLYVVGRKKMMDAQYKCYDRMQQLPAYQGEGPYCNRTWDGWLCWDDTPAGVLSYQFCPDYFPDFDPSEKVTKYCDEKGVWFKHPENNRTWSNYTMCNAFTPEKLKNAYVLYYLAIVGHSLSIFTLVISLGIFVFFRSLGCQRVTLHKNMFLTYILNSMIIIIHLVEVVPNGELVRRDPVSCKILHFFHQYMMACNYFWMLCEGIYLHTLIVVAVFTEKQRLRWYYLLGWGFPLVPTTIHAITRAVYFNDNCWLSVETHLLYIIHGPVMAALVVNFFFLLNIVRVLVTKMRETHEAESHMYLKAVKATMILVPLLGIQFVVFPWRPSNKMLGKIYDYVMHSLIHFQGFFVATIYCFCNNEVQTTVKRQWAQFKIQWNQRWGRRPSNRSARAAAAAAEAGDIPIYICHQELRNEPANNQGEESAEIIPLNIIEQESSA
T1 sequence (looked up) 2: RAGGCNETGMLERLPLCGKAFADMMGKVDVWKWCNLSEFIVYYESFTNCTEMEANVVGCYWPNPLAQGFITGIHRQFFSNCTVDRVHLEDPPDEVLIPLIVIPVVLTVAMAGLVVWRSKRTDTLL

B1: N^α1-[(4S)-4-carboxy-4-(19-carboxynonadecanoylamino)butanoyl]-[Glu14,Arg17,Pro21,Pro26,Pro37]-h-amylin (peptide)
peptide: {C20 diacid-γGlu}-KCNTATCATQRLAEFLRHSSPNFGAPLSSTNVGSNTP-NH2
modifications: disulfide 2-7
SMILES: CC(C)C[C@H](NC(=O)[C@H](CCCNC(=N)N)NC(=O)[C@H](CCC(N)=O)NC(=O)[C@@H](NC(=O)[C@H](C)NC(=O)[C@@H]1CSSC[C@H](NC(=O)[C@H](CCCCN)NC(=O)CC[C@H](NC(=O)CCCCCCCCCCCCCCCCCCC(=O)O)C(=O)O)C(=O)N[C@@H](CC(N)=O)C(=O)N[C@@H]([C@@H](C)O)C(=O)N[C@@H](C)C(=O)N[C@@H]([C@@H](C)O)C(=O)N1)[C@@H](C)O)C(=O)N[C@@H](C)C(=O)N[C@@H](CCC(=O)O)C(=O)N[C@@H](Cc1ccccc1)C(=O)N[C@@H](CC(C)C)C(=O)N[C@@H](CCCNC(=N)N)C(=O)N[C@@H](Cc1c[nH]cn1)C(=O)N[C@@H](CO)C(=O)N[C@@H](CO)C(=O)N1CCC[C@H]1C(=O)N[C@@H](CC(N)=O)C(=O)N[C@@H](Cc1ccccc1)C(=O)NCC(=O)N[C@@H](C)C(=O)N1CCC[C@H]1C(=O)N[C@@H](CC(C)C)C(=O)N[C@@H](CO)C(=O)N[C@@H](CO)C(=O)N[C@H](C(=O)N[C@@H](CC(N)=O)C(=O)N[C@H](C(=O)NCC(=O)N[C@@H](CO)C(=O)N[C@@H](CC(N)=O)C(=O)N[C@H](C(=O)N1CCC[C@H]1C(N)=O)[C@@H](C)O)C(C)C)[C@@H](C)O
notes: also called compound 5
B2: N^α1-[(4S)-4-carboxy-4-(19-carboxynonadecanoylamino)butanoyl]-[Glu14,Arg17,Pro21,Pro27,Asp35,Pro37]-h-amylin (peptide)
peptide: {C20 diacid-γGlu}-KCNTATCATQRLAEFLRHSSPNFGAIPSSTNVGSDTP-NH2
modifications: disulfide 2-7
SMILES: CC[C@H](C)[C@H](NC(=O)[C@H](C)NC(=O)CNC(=O)[C@H](Cc1ccccc1)NC(=O)[C@H](CC(N)=O)NC(=O)[C@@H]1CCCN1C(=O)[C@H](CO)NC(=O)[C@H](CO)NC(=O)[C@H](Cc1c[nH]cn1)NC(=O)[C@H](CCCNC(=N)N)NC(=O)[C@H](CC(C)C)NC(=O)[C@H](Cc1ccccc1)NC(=O)[C@H](CCC(=O)O)NC(=O)[C@H](C)NC(=O)[C@H](CC(C)C)NC(=O)[C@H](CCCNC(=N)N)NC(=O)[C@H](CCC(N)=O)NC(=O)[C@@H](NC(=O)[C@H](C)NC(=O)[C@@H]1CSSC[C@H](NC(=O)[C@H](CCCCN)NC(=O)CC[C@H](NC(=O)CCCCCCCCCCCCCCCCCCC(=O)O)C(=O)O)C(=O)N[C@@H](CC(N)=O)C(=O)N[C@@H]([C@@H](C)O)C(=O)N[C@@H](C)C(=O)N[C@@H]([C@@H](C)O)C(=O)N1)[C@@H](C)O)C(=O)N1CCC[C@H]1C(=O)N[C@@H](CO)C(=O)N[C@@H](CO)C(=O)N[C@H](C(=O)N[C@@H](CC(N)=O)C(=O)N[C@H](C(=O)NCC(=O)N[C@@H](CO)C(=O)N[C@@H](CC(=O)O)C(=O)N[C@H](C(=O)N1CCC[C@H]1C(N)=O)[C@@H](C)O)C(C)C)[C@@H](C)O
notes: also called 11; compound 11
B3: N^α1-[(4S)-4-carboxy-4-(19-carboxynonadecanoylamino)butanoyl]-[Glu14,Arg17,Pro21,Pro27,Pro29]-h-amylin (peptide)
peptide: {C20 diacid-γGlu}-KCNTATCATQRLAEFLRHSSPNFGAIPSPTNVGSNTY-NH2
modifications: disulfide 2-7
SMILES: CC[C@H](C)[C@H](NC(=O)[C@H](C)NC(=O)CNC(=O)[C@H](Cc1ccccc1)NC(=O)[C@H](CC(N)=O)NC(=O)[C@@H]1CCCN1C(=O)[C@H](CO)NC(=O)[C@H](CO)NC(=O)[C@H](Cc1c[nH]cn1)NC(=O)[C@H](CCCNC(=N)N)NC(=O)[C@H](CC(C)C)NC(=O)[C@H](Cc1ccccc1)NC(=O)[C@H](CCC(=O)O)NC(=O)[C@H](C)NC(=O)[C@H](CC(C)C)NC(=O)[C@H](CCCNC(=N)N)NC(=O)[C@H](CCC(N)=O)NC(=O)[C@@H](NC(=O)[C@H](C)NC(=O)[C@@H]1CSSC[C@H](NC(=O)[C@H](CCCCN)NC(=O)CC[C@H](NC(=O)CCCCCCCCCCCCCCCCCCC(=O)O)C(=O)O)C(=O)N[C@@H](CC(N)=O)C(=O)N[C@@H]([C@@H](C)O)C(=O)N[C@@H](C)C(=O)N[C@@H]([C@@H](C)O)C(=O)N1)[C@@H](C)O)C(=O)N1CCC[C@H]1C(=O)N[C@@H](CO)C(=O)N1CCC[C@H]1C(=O)N[C@H](C(=O)N[C@@H](CC(N)=O)C(=O)N[C@H](C(=O)NCC(=O)N[C@@H](CO)C(=O)N[C@@H](CC(N)=O)C(=O)N[C@H](C(=O)N[C@@H](Cc1ccc(O)cc1)C(N)=O)[C@@H](C)O)C(C)C)[C@@H](C)O
notes: also called 37; compound 37
B4: N^α1-[(4S)-4-carboxy-4-(19-carboxynonadecanoylamino)butanoyl]-[Glu14,Arg17,Pro21,Pro26]-h-amylin (peptide)
peptide: {C20 diacid-γGlu}-KCNTATCATQRLAEFLRHSSPNFGAPLSSTNVGSNTY-NH2
modifications: disulfide 2-7
SMILES: CC(C)C[C@H](NC(=O)[C@H](CCCNC(=N)N)NC(=O)[C@H](CCC(N)=O)NC(=O)[C@@H](NC(=O)[C@H](C)NC(=O)[C@@H]1CSSC[C@H](NC(=O)[C@H](CCCCN)NC(=O)CC[C@H](NC(=O)CCCCCCCCCCCCCCCCCCC(=O)O)C(=O)O)C(=O)N[C@@H](CC(N)=O)C(=O)N[C@@H]([C@@H](C)O)C(=O)N[C@@H](C)C(=O)N[C@@H]([C@@H](C)O)C(=O)N1)[C@@H](C)O)C(=O)N[C@@H](C)C(=O)N[C@@H](CCC(=O)O)C(=O)N[C@@H](Cc1ccccc1)C(=O)N[C@@H](CC(C)C)C(=O)N[C@@H](CCCNC(=N)N)C(=O)N[C@@H](Cc1c[nH]cn1)C(=O)N[C@@H](CO)C(=O)N[C@@H](CO)C(=O)N1CCC[C@H]1C(=O)N[C@@H](CC(N)=O)C(=O)N[C@@H](Cc1ccccc1)C(=O)NCC(=O)N[C@@H](C)C(=O)N1CCC[C@H]1C(=O)N[C@@H](CC(C)C)C(=O)N[C@@H](CO)C(=O)N[C@@H](CO)C(=O)N[C@H](C(=O)N[C@@H](CC(N)=O)C(=O)N[C@H](C(=O)NCC(=O)N[C@@H](CO)C(=O)N[C@@H](CC(N)=O)C(=O)N[C@H](C(=O)N[C@@H](Cc1ccc(O)cc1)C(N)=O)[C@@H](C)O)C(C)C)[C@@H](C)O
notes: also called compound 7
B5: N^α1-[(4S)-4-carboxy-4-(19-carboxynonadecanoylamino)butanoyl]-[Glu14,Arg17,Pro21,Pro27,His35]-h-amylin (peptide)
peptide: {C20 diacid-γGlu}-KCNTATCATQRLAEFLRHSSPNFGAIPSSTNVGSHTY-NH2
modifications: disulfide 2-7
SMILES: CC[C@H](C)[C@H](NC(=O)[C@H](C)NC(=O)CNC(=O)[C@H](Cc1ccccc1)NC(=O)[C@H](CC(N)=O)NC(=O)[C@@H]1CCCN1C(=O)[C@H](CO)NC(=O)[C@H](CO)NC(=O)[C@H](Cc1c[nH]cn1)NC(=O)[C@H](CCCNC(=N)N)NC(=O)[C@H](CC(C)C)NC(=O)[C@H](Cc1ccccc1)NC(=O)[C@H](CCC(=O)O)NC(=O)[C@H](C)NC(=O)[C@H](CC(C)C)NC(=O)[C@H](CCCNC(=N)N)NC(=O)[C@H](CCC(N)=O)NC(=O)[C@@H](NC(=O)[C@H](C)NC(=O)[C@@H]1CSSC[C@H](NC(=O)[C@H](CCCCN)NC(=O)CC[C@H](NC(=O)CCCCCCCCCCCCCCCCCCC(=O)O)C(=O)O)C(=O)N[C@@H](CC(N)=O)C(=O)N[C@@H]([C@@H](C)O)C(=O)N[C@@H](C)C(=O)N[C@@H]([C@@H](C)O)C(=O)N1)[C@@H](C)O)C(=O)N1CCC[C@H]1C(=O)N[C@@H](CO)C(=O)N[C@@H](CO)C(=O)N[C@H](C(=O)N[C@@H](CC(N)=O)C(=O)N[C@H](C(=O)NCC(=O)N[C@@H](CO)C(=O)N[C@@H](Cc1c[nH]cn1)C(=O)N[C@H](C(=O)N[C@@H](Cc1ccc(O)cc1)C(N)=O)[C@@H](C)O)C(C)C)[C@@H](C)O
notes: also called 18; compound 18
B6: N^α1-[(4S)-4-carboxy-4-(19-carboxynonadecanoylamino)butanoyl]-[Glu14,Arg17,Pro21,Pro27,Arg35]-h-amylin (peptide)
peptide: {C20 diacid-γGlu}-KCNTATCATQRLAEFLRHSSPNFGAIPSSTNVGSRTY-NH2
modifications: disulfide 2-7
SMILES: CC[C@H](C)[C@H](NC(=O)[C@H](C)NC(=O)CNC(=O)[C@H](Cc1ccccc1)NC(=O)[C@H](CC(N)=O)NC(=O)[C@@H]1CCCN1C(=O)[C@H](CO)NC(=O)[C@H](CO)NC(=O)[C@H](Cc1c[nH]cn1)NC(=O)[C@H](CCCNC(=N)N)NC(=O)[C@H](CC(C)C)NC(=O)[C@H](Cc1ccccc1)NC(=O)[C@H](CCC(=O)O)NC(=O)[C@H](C)NC(=O)[C@H](CC(C)C)NC(=O)[C@H](CCCNC(=N)N)NC(=O)[C@H](CCC(N)=O)NC(=O)[C@@H](NC(=O)[C@H](C)NC(=O)[C@@H]1CSSC[C@H](NC(=O)[C@H](CCCCN)NC(=O)CC[C@H](NC(=O)CCCCCCCCCCCCCCCCCCC(=O)O)C(=O)O)C(=O)N[C@@H](CC(N)=O)C(=O)N[C@@H]([C@@H](C)O)C(=O)N[C@@H](C)C(=O)N[C@@H]([C@@H](C)O)C(=O)N1)[C@@H](C)O)C(=O)N1CCC[C@H]1C(=O)N[C@@H](CO)C(=O)N[C@@H](CO)C(=O)N[C@H](C(=O)N[C@@H](CC(N)=O)C(=O)N[C@H](C(=O)NCC(=O)N[C@@H](CO)C(=O)N[C@@H](CCCNC(=N)N)C(=O)N[C@H](C(=O)N[C@@H](Cc1ccc(O)cc1)C(N)=O)[C@@H](C)O)C(C)C)[C@@H](C)O
notes: also called 16; compound 16

What follows are binders tested against T1, human amylin receptor (amylin 3(a) …) (assay: SPA displacement of 125I-rat amylin, hAmylin 3(a) receptor membranes).
Procedure: The binding assay was performed using scintillation proximity assay (SPA) beads (RPNQ0001) from PerkinElmer and cell membranes from the Amylin 3(a)/CRE-luc cells (as described in Assay (II)) were used. Membranes were prepared in the following way; the cells were rinsed with PBS and incubated with Versene for approximately 5 min before harvesting. The cells were flushed with PBS and the cell-suspension was centrifuged for 5 min at 1000 rpm. Cells were homogenized (ultrathurrax) in a buffer containing 20 mM Na-HEPES and 10 mM EDTA (pH 7.4) and centrifuged at 20.000 rpm for 15 min. The resulting pellet was resuspended, homogenized and centrifuged (20.000 rpm, 15 min) in a buffer containing 20 mM Na-HEPES and 0.1 mM EDTA (pH 7.4, buffer 2). The resulting pellet was resuspended in buffer 2 and protein concentration was measured (BCA protein Assay, Pierce). The homogenate was kept cold during the whole procedure. The membranes were kept at −80° C. until use. The assay was performed in a 384 well Optiplate (PerkinElmer) in a total volume of 40 ul. Membranes were mixed with SPA beads. Final concentration of membranes 35 ng/μL final and SPA beads was 0.05 mg/well. Test-compounds were dissolved in DMSO and further diluted in assay buffer (50 mM Hepes, pH 7.4, 1 mM CaCl2, 5 mM MgCl₂, 0.1% OA and 0.02% Tween20). […] The final mixture was incubated with shaking at 400 rpm for 120 min at 25° C. prior to centrifugation (1500 rpm, 10 min). Samples were analyzed on TopCounter™ (Packard). The IC₅₀ was calculated using (one site binding competition analysis) GraphPad Prism5 as a measure of receptor affinity.
An IC50 of 0.374 nM was found for B1 in this work. An IC50 of 0.105 nM was found for B2 in this work. An IC50 of 0.97 nM was found for B3 in this work. An IC50 of 0.674 nM was found for B4 in this work. An IC50 of 0.554 nM was found for B5 in this work. An IC50 of 0.894 nM was found for B6 in this work.

— patent US20140087995A1 (published 2014)
